Positions count from the first letter of the chain named. Numbers in names are those of the source.
What was measured:
[1] = tested on: T1, O=C(Cc1cccs1)N[C@@H]1C(=O)N2C(C(=O)O)=C(/C=C/c3ccc([N+](=O)[O-])cc3[N+](=O)[O-])CS[C@H]12; test: purified protein; type: biochemical, Escherichia coli; settings: 50 mM Tris-HCl pH 8, room temperature
T1 construct: mature OmpF; His-tag and thrombin site deleted; beta-barrel trimer

[2] = target: the molecule itself; test: SDS-PAGE of the refolded protein; unfolded OmpF (20 mg/mL) refolded with 1% n-dodecyl-β-D-glucopyranoside and 1% n-dodecyl-β-D-maltopyranoside at 37 °C for 1-2 days; folding and oligomerization determined by 15% SDS-PAGE
[3] = OmpF2, 1.2 equiv. ZnCl2, 10 µM protein
[4] = OmpF1Y, 1.2 equiv. ZnCl2, 10 µM protein
[5] = OmpF1, 1.2 equiv. ZnCl2, 10 µM protein

OmpF (outer membrane protein F; OmpF1, OmpF1Y, OmpF2 and evolved variants) (Escherichia coli K-12; L105H/R154H/Y124H)
Km [1, 3]: 1700 ± 600 µM | kcat [1, 3]: 0.025 ± 0.005 s⁻¹

OmpF (outer membrane protein F; OmpF1, OmpF1Y, OmpF2 and evolved variants) (Escherichia coli K-12; R104H/R154H)
Km [1, 4]: 2000 ± 1000 µM | kcat [1, 4]: 0.02 ± 0.01 s⁻¹

OmpF (outer membrane protein F; OmpF1, OmpF1Y, OmpF2 and evolved variants) (Escherichia coli K-12; R104H/R154H/Y124H)
Km [1, 5]: 1400 ± 600 µM | kcat [1, 5]: 0.017 ± 0.004 s⁻¹

B1: OmpF1 (OmpF R82H/Y102H/R132H) (natural protein, UniProt P02931 23-362, looked up)
chain: AEIYNKDGNKVDLYGKAVGLHYFSKGNGENSYGGNGDMTYARLGFKGETQINSDLTGYGQWEYNFQGNNSEGADAQTGNKTHLAFAGLKYADVGSFDYGRNHGVVYDALGYTDMLPEFGGDTAYSDDFFVGHVGGVATYRNSNFFGLVDGLNFAVQYLGKNERDTARRSNGDGVGGSISYEYEGFGIVGAYGAADRTNLQEAQPLGNGKKAEQWATGLKYDANNIYLAANYGETRNATPITNKFTNTSGFANKTQDVLLVAQYQFDFGLRPSIAYTKSKAKDVEGIGDVDLVNYFEVGATYYFNKNMSTYVDYIINQIDSDNKLGVGSDDTVAVGIVYQF
notes: outer membrane protein F (OmpF), UniProt P02931, expressed without the native 22-residue signal peptide; His-tag and thrombin site were deleted from the plasmid; Crystallised with 1.2 equiv. of Zn ion per protomer; also called R132H/Y102H/R82H; source: E. coli BL21(DE3)
stoichiometry N [2]: 3

B2: OmpF2 (OmpF L83H/Y102H/R132H) (natural protein, UniProt P02931 23-362, looked up)
chain: B1 chain with H82R, L83H
notes: outer membrane protein F (OmpF), UniProt P02931, expressed without the native 22-residue signal peptide; His-tag and thrombin site were deleted from the plasmid; Crystallised with 1.2 equiv. of Zn ion per protomer; also called R132H/Y102H/L83H; source: E. coli BL21(DE3)
stoichiometry N [2]: 3
